Consider eight molecules from patent US20230293713A1, “ANTI-TM4SF1 ANTIBODY DRUG CONJUGATES AND METHODS OF USING SAME” (priority 2020, published 2023).

Read-outs that look alike come from different tables or passages of the source.

For data set [1] the following is noted: in vivo; cited from earlier work.
Another data set concerns HUVEC. The data set can be described thus: Cell killing assay in HUVEC (PrestoBlue viability, 5 days). The data set is classed as cell-based. To be noted: Homo sapiens. The procedure:
To assess the effect of anti-TM4SF1 ADCs conjugated to carfilzomib, cytotoxicity of treated cell lines were assessed in cultured endothelial cell (HUVEC) and tumor cells (MiaPaca2 and SKOV3) in vitro. HUVEC was treated with free carfilzomib, CFZ-ND-ADC DAR 2.5, and CFZ-ND-ADC DAR 6.7, and maytansine-ND-ADC (DAR 2.0) and cytotoxicity was assessed (FIG. 2A). Cytotoxicity of HUVEC correlates with CFZ DAR. […] Cell killing assay. […] RPMI/10% FBS for MiaPaca2 and SKOV3). Cells are cultured for overnight at 37° C. degrees. On day 2, exemplary ADCs containing CFZ are serially diluted 5-fold in the culture media, and 100 µL of the diluted compounds is transferred to the cell plates. The final top concentration of the test exemplary ADCs in the cell plates is 333.335 nM and the lowest concentration is 0.0043 nM. […] 10 µl PrestoBlue HS cell viability reagent (ThermoFisher cat# P50201) is added to each well and incubated for 1 hour in CO2 incubator before reading the […] at 570 nm/600 nm excitation and emission through a plate reader (Varioskan™ LUX multimode microplate reader). To assess the effect of various anti-TM4SF1 ADCs conjugated to carfilzomib, cytotoxicity of treated cell lines were assessed. HUVEC was treated with free carfilzomib, and six ADCs (Table 1A) conjugated with carfilzomib (CFZ) with various linkers and/or DAR values, and cytotoxicity was assessed (Table 1B).

Data set [2] addresses T1, Transmembrane-4 L six family member-1 (TM4SF1) (human, UniProt P30408 1-202, limits assumed).
T1 construct: also called human TM4SF1; hTM4SF1
T1 sequence: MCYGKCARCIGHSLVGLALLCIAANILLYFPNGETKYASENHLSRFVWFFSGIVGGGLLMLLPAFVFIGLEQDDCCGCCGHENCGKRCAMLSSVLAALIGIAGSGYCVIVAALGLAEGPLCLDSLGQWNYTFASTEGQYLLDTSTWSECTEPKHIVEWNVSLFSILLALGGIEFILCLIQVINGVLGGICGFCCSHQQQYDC
Description: screen, method not described.

As to `COc1ccc(/C=C\c2cc(OC)c(OC)c(OC)c2)cc1OP(=O)(O)O` [CA4P], the “patients who experienced heart attacks while being treated” value in data set [1] is “seven”.
Consider `CC(C)C[C@H](NC(=O)[C@H](CCc1ccccc1)NC(=O)CN1CCOCC1)C(=O)N[C@@H](Cc1ccccc1)C(=O)N[C@@H](CC(C)C)C(=O)[C@@]1(C)CO1` [CFZ, (S)-4-Methyl-N—((S)-1-(((S)-4-methyl-1-((R)-2-methyloxiran-2-yl)-1-oxopentan-2-yl)amino)-1-oxo-3-phenylpropan-2-yl)-2-((S)-2-(2-morpholinoacetamido)-4-phenylbutanamido)-pentanamide], for which the concentration giving a half-maximal response (EC50) in the data set with HUVEC (FIG. 2A, read-out: EC50, cytotoxicity of HUVEC) came out at 11.9 nM; in the data set on HUVEC (read-out: killing in vitro (EC50 nM) HUVEC), 11.9 nM.

B1: AGX-A07 (antibody, V domains shown)
VH: QIQLVQSGPELKKPGETVKISCKASGYTFTNYGVKWVKQAPGKDLKWMGWINTYTGNPIYAADFKGRFAFSLETSASTAFLQINNLKNEDTATYFCVRFQYGDYRYFDVWGAGTTVTVSS
VL: QIILSQSPAILSASPGEKVTMTCRANSGISFINWYQQKPGSSPKPWIYGTANLASGVPARFGGSGSGTSYSLTISRVEAEDAATYYCQQWSSNPLTFGAGTKLELR
notes: also called murine monoclonal antibody AGX-A07
B1: in data set [2], the binding result is “binds”.

B2: AGX-A04 (antibody, V domains shown)
VH: EVQLQQSGPELVKPGASVKISCKTSGYTFTDYTMHWVRQSHGKSLEWIGSFNPNNGGLTNYNQKFKGKATLTVDKSSSTVYMDLRSLTSEDSAVYYCTRIRATGFDSWGQGTTLTVSS
VL: DIVMSQSPSSLAVSAGEKVTMSCKSSQSLLNSRTRKNYLAWYQQKPGQSPKLLIYWASTRESGVPDRFTGSGSGTDFTLTISNVQAEDLTVYYCKQSYNPPWTFGGGTKLEIK
notes: Monoclonal murine antibody; also called murine monoclonal antibody AGX-A04
Turning to B2, the binding result in data set [2] is “binds”.

B3: AGX-A08 (antibody, V domains shown)
VH: EVQLQQSGPELVKPGASVKLSCKASGYTVTSYVMHWVKQKPGQGLEWIGYINPYSDVTNCNEKFKGKATLTSDKTSSTAYMELSSLTSEDSAVYYCSSYGGGFAYWGQGTLVTVSA
VL: DIQMTQSPASLSASVGEPVTITCRASKNIYTYLAWYHQKQGKSPQFLVYNARTLAGGVPSRLSGSGSVTQFSLNINTLHREDLGTYFCQHHYDTPYTFGGGTNLEIK
notes: Monoclonal murine antibody; also called murine monoclonal antibody AGX-A08
Take B3: in data set [2], the binding result was “binds”.

B4: AGX-A05 (antibody, V domains shown)
VH: EVQVQQSGPELVKPGASVKMSCKASGYTFTSYVMHWVKQKPGQGLEWIGYINPNNDNINYNEKFKGKASLTSDKSSNTVYMELSSLTSEDSAVYYCAGYGNSGANWGQGTLVTVSA
VL: DIQMTQSPASLSASVGETVTITCRTSKNIFNFLAWYHQKQGRSPRLLVSHTKTLAAGVPSRFSGSGSGTQFSLKINSLQPEDFGIYYCQHHYGTPWTFGGGTKLEIK
notes: Monoclonal murine antibody; also called murine monoclonal antibody AGX-A05
As to B4, in data set [2], the binding result is on record as “binds”.

B5: AGX-A09 (antibody, V domains shown)
VH: EVQLQQSGPELVKPGASVKMSCKASGYTFSSYVMHWVKQKPGQGLEWIGYINPYSDVTNYNEKFKGKATLTSDRSSNTAYMELSSLTSEDSAVYYCARNYFDWGRGTLVTVSA
VL: DIQMTQSPASLSASVGETVTITCRASKNVYSYLAWFQQKQGKSPQLLVYNAKTLAEGVPSRFSGGGSGTQFSLKINSLQPADFGSYYCQHHYNIPFTFGSGTKLEIK
notes: Monoclonal murine antibody; also called murine monoclonal antibody AGX-A09
As for B5, in data set [2], the binding result is “binds”.

B6: AGX-A03 (antibody, V domains shown)
VH: QIQLVQSGPELKKPGETVKISCKASGYSFRDYGMNWVKQAPGRTFKWMGWINTYTGAPVYAADFKGRFAFSLDTSASAAFLQINNLKNEDTATYFCARWVSYGNNRNWFFDFWGAGTTVTVSS
VL: DVLMTQTPLSLPVRLGDQASISCRSSQTLVHSNGNTYLEWYLQKPGQSPKLLIYKVSNRLSGVPDRFSGSGSGTDFTLKISRVETEDLGVYYCFQGSHGPWTFGGGTKLEIK
notes: Monoclonal murine antibody; also called Antibody AGX-A03; murine monoclonal antibody AGX-A03
With B6, in data set [2], the binding result was “binds”.
